# B1: Ras-related protein Ral-A (Homo sapiens), P11233 (parent)
# chain: MAANKPKGQNSLALHKVIMVGSGGVGKSALTLQFMYDEFVEDYEPTKADSYRKKVVLDGEEVQIDILDTAGQEDYAAIRDNYFRSGEGFLCVFSITEMESFAATADFREQILRVKEDENVPFLLVGNKSDLEDKRQVSVEEAKNRAEQWNVNYVETSAKTRANVDKVFFDLMREIRARKMEDSKEKNGKKKRKSLAKRIRERCCIL
# B2: Serine/threonine-protein phosphatase 2A 65 kDa regulatory subunit A beta isoform (Homo sapiens), P30154 (parent)
# chain: MAGASELGTGPGAAGGDGDDSLYPIAVLIDELRNEDVQLRLNSIKKLSTIALALGVERTRSELLPFLTDTIYDEDEVLLALAEQLGNFTGLVGGPDFAHCLLPPLENLATVEETVVRDKAVESLRQISQEHTPVALEAYFVPLVKRLASGDWFTSRTSACGLFSVCYPRASNAVKAEIRQQFRSLCSDDTPMVRRAAASKLGEFAKVLELDSVKSEIVPLFTSLASDEQDSVRLLAVEACVSIAQLLSQDDLETLVMPTLRQAAEDKSWRVRYMVADRFSELQKAMGPKITLNDLIPAFQNLLKDCEAEVRAAAAHKVKELGENLPIEDRETIIMNQILPYIKELVSDTNQHVKSALASVIMGLSTILGKENTIEHLLPLFLAQLKDECPDVRLNIISNLDCVNEVIGIRQLSQSLLPAIVELAEDAKWRVRLAIIEYMPLLAGQLGVEFFDEKLNSLCMAWLVDHVYAIREAATNNLMKLVQKFGTEWAQNTIVPKVLVMANDPNYLHRMTTLFCINALSEACGQEITTKQMLPIVLKMAGDQVANVRFNVAKSLQKIGPILDTNALQGEVKPVLQKLGQDEDMDVKYFAQEAISVLALA
# B3: Serine/threonine-protein phosphatase 2A 65 kDa regulatory subunit A beta isoform (Homo sapiens), P30154 (parent)
# chain: B2 chain
# partner: B1 chain
# B4: Serine/threonine-protein phosphatase 2A 65 kDa regulatory subunit A beta isoform (Homo sapiens), P30154 (parent)
# chain: B2 chain
# partner: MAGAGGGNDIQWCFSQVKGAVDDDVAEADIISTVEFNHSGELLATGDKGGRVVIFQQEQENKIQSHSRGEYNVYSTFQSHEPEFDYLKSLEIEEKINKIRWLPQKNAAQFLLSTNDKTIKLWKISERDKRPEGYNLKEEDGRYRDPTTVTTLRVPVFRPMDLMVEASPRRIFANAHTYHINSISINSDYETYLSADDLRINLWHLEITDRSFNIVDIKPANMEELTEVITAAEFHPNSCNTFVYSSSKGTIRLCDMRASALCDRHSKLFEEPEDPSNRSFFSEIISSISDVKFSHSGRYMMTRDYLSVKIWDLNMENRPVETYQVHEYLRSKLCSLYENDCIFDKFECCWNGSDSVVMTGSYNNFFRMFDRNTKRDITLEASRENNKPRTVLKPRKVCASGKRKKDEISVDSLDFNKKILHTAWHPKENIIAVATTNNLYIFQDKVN
# Variants of: B1
# Settings: with 2aab_human PPP2R1B
row,effect of a mutation on the interaction,Variant
1,decreasing interaction,MAANKPKGQNSLALHKVIMVGSGGVGKSALTLQFMYDEFVEDYEPTKADSYRKKVVLDGEEVQIDILDTAGQEDYAAIRDNYFRSGEGFLCVFSITEMESFAATADFREQILRVKEDENVPFLLVGNKSDLEDKRQVSVEEAKNRAEQWNVNYVETSAKTRANVDKVFFDLMREIRARKMEDSKEKNGKKKRKALAKRIRERCCIL [S194A]
2,decreasing interaction,MAANKPKGQNSLALHKVIMVGSGGVGKSALTLQFMYDEFVEDYEPTKADSYRKKVVLDGEEVQIDILDTAGQEDYAAIRDNYFRSGEGFLCVFSITEMESFAATADFREQILRVKEDENVPFLLVGNKSDLEDKRQVSVEEAKNRAEQWNVNYVETSAKTRANVDKVFFDLMREIRARKMEDAKEKNGKKKRKSLAKRIRERCCIL [S183A]

# Variants of: B2
# Settings: with pp2aa_human PPP2CA
row,effect of a mutation on the interaction,Variant
1,decreasing interaction,V448A
2,decreasing interaction,L101P;V448A
3,decreasing interaction,L101P

# Variants of: B2
# Settings: with 2a5a_human PPP2R5A
row,effect of a mutation on the interaction,Variant
1,decreasing interaction,V448A
2,decreasing interaction,L101P;V448A
3,decreasing interaction,L101P

# Variants of: B2
# Settings: with 2a5g_human PPP2R5C
row,Variant,effect of a mutation on the interaction
1,K343E,decreasing interaction
2,L101P;V448A,decreasing interaction
3,L101P,decreasing interaction

# The remaining lines, values ahead:
row,effect of a mutation on the interaction,Variant
1,decreasing interaction,V448A
2,decreasing interaction,V545A
3,decreasing interaction,D504G

# Variants of: B2
# Settings: with 2a5d_human PPP2R5D
row,Variant,effect of a mutation on the interaction
1,L101P;V448A,decreasing interaction
2,L101P,decreasing interaction

# Further lines, results first:
row,effect of a mutation on the interaction,Variant
1,decreasing interaction,V448A
2,decreasing interaction,V545A

# Variants of: B3
# Settings: with rala_human RALA
row,effect of a mutation on the interaction,Variant
1,decreasing interaction,G8R
2,decreasing interaction,V448A
3,decreasing interaction,V545A

# Variants of: B4
# Settings: with 2aba_human PPP2R2A
row,effect of a mutation on the interaction,Variant
1,decreasing interaction,L101P;V448A

# — IntAct's records for PubMed 17540176
